For 13 sequences, IC50 and Kd results are on record in the Immune Epitope Database (IEDB).

In experiment [1] the target is HLA-A*01:01. The experiment can be described thus: IEDB peptide-MHC binding, purified MHC/competitive/radioactivity; ≥ and ≤ were set here for values at or beyond the usual limits of such assays. The following applies: source organism: Homo sapiens.
The target in experiment [2] is HLA-A*01:01. The experiment can be described thus: IEDB peptide-MHC binding, purified MHC/competitive/radioactivity; filed as Kd, often an IC50 or EC50 that approximates it; ≥ and ≤ were set here for values at or beyond the usual limits of such assays.
The target in experiment [3] is HLA-A*03:01. The experiment in a line: IEDB peptide-MHC binding, purified MHC/competitive/radioactivity; ≥ and ≤ were set here for values at or beyond the usual limits of such assays. The following applies: source organism: Homo sapiens.
Experiment [4] concerns the target HLA-A*11:01. Described as above. The conditions noted are these: source organism: Homo sapiens.
Experiment [5] concerns the target HLA-A*24:02. Described as above. The following applies: source organism: Homo sapiens.

Consider YLDDPDLKY, for which, in experiment [1], the IC50 (commonly the concentration at which inhibition is half-maximal) is 2.8 nM.

As to DAKIRIFDL, in experiment [2] (source organism: Homo sapiens), the Kd (usually the concentration at which binding is half-saturated) is at least 50000 nM.

On to ATDFKFAMY, for which the IC50 in experiment [1] was determined as 0.74 nM.

Take KVVNPLFEK: the IC50 in experiment [3] was found to be 85 nM; in experiment [4] it was 8.1 nM.

YYEEQHPEL: the IC50 in experiment [5] came out at 100 nM.

With RTQNVLGEK, the IC50 is 155 nM in experiment [3] and 31 nM in experiment [4].

For the sequence AYVHMVTHF, the IC50 in experiment [5] was 23 nM.

With KYPENFFLL, in experiment [5], the IC50 is 4.8 nM.

DSDGSFFLY: the IC50 in experiment [1] turned out to be 0.6 nM.

Consider ASFDKAKLK, for which the IC50 in experiment [3] was found to be 42 nM; in experiment [4] it was 15.1 nM.

Consider NRKLLDIA, for which the Kd in experiment [2] (source organism: Bos taurus) was at least 50000 nM.

On to STDHIPILY, for which the IC50 in experiment [1] was 1.7 nM.

In the case of SVLNLVIVK, the values for the IC50 in experiment [3] and in experiment [4] were 128 nM and 6.94 nM, respectively.
